Reference: article PMC8155012, “Architecture of the Sema3A/PlexinA4/Neuropilin tripartite complex” (Nature Communications, 2021)
Numbering of substitutions follows the chain as printed. Names may count otherwise. One block for each binder: values may come before it.

Tests used:
[1] = biological target: T1, FLAG-tagged PlexinA4 extracellular region (mouse, UniProt Q80UG2 33-1226); assay: pull-down; FLAG-tagged PlexinA4 (20 µg) on anti-FLAG antibody resin; Nrp1 and Sema3A, 30 µg each, added together; 20 mM HEPES (pH 7.5), 150 mM NaCl, 1 mM CaCl2, 4 °C, 1 h; SDS-PAGE, Coomassie blue; conditions: both partners purified
T1 construct: mouse PlexinA4 residues 33–1226, extracellular region; FLAG inserted immediately after the signal peptide; also called PlexinA4-WT; source: Expi293F, purified from medium (Ni-NTA, Superose 6); not shown: FLAG, N-terminal, kept
T1 sequence (looked up): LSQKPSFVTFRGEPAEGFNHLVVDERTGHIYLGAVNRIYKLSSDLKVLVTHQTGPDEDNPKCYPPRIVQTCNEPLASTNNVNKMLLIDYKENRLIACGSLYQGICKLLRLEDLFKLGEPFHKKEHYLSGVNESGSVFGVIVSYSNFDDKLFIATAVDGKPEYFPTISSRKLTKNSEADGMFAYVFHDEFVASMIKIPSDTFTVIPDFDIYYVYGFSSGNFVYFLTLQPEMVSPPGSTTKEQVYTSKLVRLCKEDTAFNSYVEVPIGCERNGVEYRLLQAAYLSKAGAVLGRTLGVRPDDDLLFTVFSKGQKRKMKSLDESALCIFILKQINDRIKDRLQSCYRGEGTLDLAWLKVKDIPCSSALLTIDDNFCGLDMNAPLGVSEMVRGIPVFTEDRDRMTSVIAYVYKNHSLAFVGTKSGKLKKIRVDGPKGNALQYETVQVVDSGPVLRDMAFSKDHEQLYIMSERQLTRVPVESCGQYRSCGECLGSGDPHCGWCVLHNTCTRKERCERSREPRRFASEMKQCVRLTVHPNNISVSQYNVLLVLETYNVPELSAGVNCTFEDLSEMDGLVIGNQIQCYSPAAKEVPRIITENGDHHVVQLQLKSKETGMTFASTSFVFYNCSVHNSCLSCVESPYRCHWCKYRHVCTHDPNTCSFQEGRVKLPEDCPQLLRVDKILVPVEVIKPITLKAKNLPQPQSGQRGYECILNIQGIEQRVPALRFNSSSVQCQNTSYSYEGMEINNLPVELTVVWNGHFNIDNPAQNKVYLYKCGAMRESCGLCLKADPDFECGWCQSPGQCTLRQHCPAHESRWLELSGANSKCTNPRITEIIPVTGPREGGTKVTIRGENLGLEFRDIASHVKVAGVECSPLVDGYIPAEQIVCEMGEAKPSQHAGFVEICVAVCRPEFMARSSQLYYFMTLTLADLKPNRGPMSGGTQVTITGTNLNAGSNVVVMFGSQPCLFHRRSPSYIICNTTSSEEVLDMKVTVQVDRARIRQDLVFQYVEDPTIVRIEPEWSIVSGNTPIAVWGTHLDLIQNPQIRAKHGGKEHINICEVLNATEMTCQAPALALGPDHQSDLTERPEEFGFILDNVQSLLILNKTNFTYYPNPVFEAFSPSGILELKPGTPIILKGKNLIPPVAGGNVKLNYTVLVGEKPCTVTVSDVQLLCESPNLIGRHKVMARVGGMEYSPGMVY

[2] = biological target: T2, FLAG-tagged PlexinA4 extracellular region K343E (mouse, UniProt Q80UG2 33-1226, K343E); assay: as above; conditions: both partners purified
T2 construct: mouse PlexinA4 residues 33–1226, extracellular region, K343E; also called PlexinA4-K343E; source: Expi293F, purified from medium (Ni-NTA, Superose 6); not shown: FLAG, N-terminal, kept
T2 sequence (looked up): T1 sequence (looked up) with K311E

binding result [1]: binds | binding result [2]: binds
B1: Sema3A (21–770) (ligand, mouse, UniProt O08665 21-770, looked up)
chain: NYANGKNNVPRLKLSYKEMLESNNVITFNGLANSSSYHTFLLDEERSRLYVGAKDHIFSFNLVNIKDFQKIVWPVSYTRRDECKWAGKDILKECANFIKVLEAYNQTHLYACGTGAFHPICTYIEVGHHPEDNIFKLQDSHFENGRGKSPYDPKLLTASLLIDGELYSGTAADFMGRDFAIFRTLGHHHPIRTEQHDSRWLNDPRFISAHLIPESDNPEDDKVYFFFRENAIDGEHSGKATHARIGQICKNDFGGHRSLVNKWTTFLKARLICSVPGPNGIDTHFDELQDVFLMNSKDPKNPIVYGVFTTSSNIFKGSAVCMYSMSDVRRVFLGPYAHRDGPNYQWVPYQGRVPYPRPGTCPSKTFGGFDSTKDLPDDVITFARSHPAMYNPVFPINNRPIMIKTDVNYQFTQIVVDRVDAEDGQYDVMFIGTDVGTVLKVVSVPKETWHDLEEILLEEMTVFREPTTISAMELSTKQQQLYIGSTAGVAQLPLHRCDIYGKACAECCLARDPYCAWDGSSCSRYFPTAKARTRAQDIRNGDPLTHCSDLQHHDNHHGPSLEERIIYGVENSSTFLECSPKSQRALVYWQFQRRNEDRKEEIRMGDHIIRTEQGLLLRSLQKKDSGNYLCHAVEHGFMQTLLKVTLEVIDTEHLEELLHKDDDGDGSKIKEMSSSMTPSQKVWYRDFMQLINHPNLNTMDEFCEQVWKRDAAQAAQRPGHSQGSSNKWKHMQESKKGANRATHEFERAPR
notes: mouse Sema3A residues 21–770, ending at Arg770; internal furin sites mutated; without the A106K mutation; PDB 7M0R holds the A106K form; also called Sema3A-WT; wild-type Sema3A; source: Expi293F, purified from medium (Ni-NTA, Superose 6)

binding result [1]: binds | binding result [2]: binds
B2: Nrp1-a1a2b1b2 (receptor, mouse, UniProt P97333 22-588, looked up)
chain: FRSDKCGGTIKIENPGYLTSPGYPHSYHPSEKCEWLIQAPEPYQRIMINFNPHFDLEDRDCKYDYVEVIDGENEGGRLWGKFCGKIAPSPVVSSGPFLFIKFVSDYETHGAGFSIRYEIFKRGPECSQNYTAPTGVIKSPGFPEKYPNSLECTYIIFAPKMSEIILEFESFDLEQDSNPPGGMFCRYDRLEIWDGFPEVGPHIGRYCGQKTPGRIRSSSGVLSMVFYTDSAIAKEGFSANYSVLQSSISEDFKCMEALGMESGEIHSDQITASSQYGTNWSVERSRLNYPENGWTPGEDSYKEWIQVDLGLLRFVTAVGTQGAISKETKKKYYVKTYRVDISSNGEDWISLKEGNKAIIFQGNTNPTDVVLGVFSKPLITRFVRIKPVSWETGISMRFEVYGCKITDYPCSGMLGMVSGLISDSQITASNQADRNWMPENIRLVTSRTGWALPPSPHPYTNEWLQVDLGDEKIVRGVIIQGGKHRENKVFMRKFKIAYSNNGSDWKTIMDDSKRKAKSFEGNNNYDTPELRTFSPLSTRFIRIYPERATHSGLGLRMELLGCEVEAP
notes: mouse Neuropilin 1 residues 22–588, domains a1, a2, b1 and b2; also called MAM-domain truncated version of Nrp1; Nrp1-WT; source: Expi293F, transfected alone or co-expressed with Sema3A and PlexinA4, purified from medium (Ni-NTA, Superose 6)
